Experimental data: the DeepSol protein solubility set

Test: soluble on expression in E. coli; label from the status in PepcDB or PDB records
In the case of “MGSDKIHHHHHHMKGFDAKFRDFPDYIVGITKEIWEDRGIATLHEYYAEDIVVRSPASVVTGNQGVIAATMATLAEFPDRVLLGEDVIWSGTPEDGMLSSHRIISQATHAGDGVYGAATGKRLEYRILADCHAKNNAIDDEWLIRDQTAIVTQLGWTPRDYAADLIMREGGPEACVKPLTPDTDQPGPYKGRGNDNPWGERLADVLTRIMGADMAAIPEVYDRACHLEYPGHVTAHGPAEADRFWMSLRAAFPNAAFTIDHQIGREDDHMPPRAAIRWSLHGTHEGWGGFGQPTGAEVYIVGITHAEFGQVGTAEPKLRREYTLFDETSVWKQILLHEAAK”, the “soluble on expression in E. coli” value is reported as “not soluble”. With “MGSDKIHHHHHHMKGRMPIIEALCAHVERNATSWHVPGHKNGTLFEGLPSFFEWDKTELRGLDDFHYPEEAIYEAKLLLRQVYEARDSHFLINGSTVGNWAMLAAVSQRGDRIYVQRNSHKSVFNALEWLGLSPILLGPEIDPSTGISGNVSRETLEEALTTFPGGVAVFLTSPTYYGETARIEELLPFTTASGIPLLIDEAHGAHFGEAFGVRSAFELGATAVVQSAHKTLPALTMGAWIHERFTDDERRRLTRALQAFQTSSPSYLLMASLDFAREYREKWTVSNMKSVRTSHEHLHQQINQLTDITAFTFDDWSRMILSCEEYSGSQLIEALADQGLDAEFALGPHVVCILPLRSIEPFEQDTWINQIQLAIETLKAEGIPDKRYMEQPFMGKIKVSSLACPLDQLEDAEAVEQTFEQSVGLVSLETIIPYPPGIPLILRGERITAEHITMIEHYINTSIHLQGGEFLHQGKLRVIQEGIRE” the “soluble on expression in E. coli” value was “not soluble”. With “MGSDKIHHHHHHMKHKIVEVKNVLACLELMENLQGRSSITPGIGLIHGPSGFGKTTTLCWLINQLGAMNAIYVRCYATDTPSSFLARIMEELGSEMLYPMRKSVDFIVDRMNERQLPLFIDEADHIVGQSKIMETIRDLYDATEQPVVLVGMEEIARRISHRKQLFNRVSEWVEFQPADLSDVHSFAAELLDDRITVADDLLEHIRKRSGGEVRRILTALEKIERSAIANDMDIVTLDNWGDQPLFLEFRR” the “soluble on expression in E. coli” value was “not soluble”. With “MGSDKIHHHHHHMKHTQISRREFLKNIGMTGAGVLLAASPWLSAFSEAVNTSNEKCRLGVIGPGSRGRFLMSFLVQNPKVDIVALCDIYQPSIDEALKLAPKAKVYGDYRELLENNNIDAILVATPLSSHCKIVMDAFDAGKHVFCEKTIGFTMEECFRMYNKHRSTGKIFFTGQQRLFDPRYIKAMEMIHAGTFGEINAIRTFWYRNGDWRRPVPSANLERQINWRLYKEYSKGLMTELACHQLQIGSWALNKLPEKVMGHGAITYWKDGREVYDNVSCLYVFDDGVKMTFDSVISNQFYGLEEQIMGNLGTVEPEKGKYYFESIPPAPGFLQMINDWENKLFDTLPFAGTSWAPETANENKGELILGERPKSDGTSLLLEAFVEAVITRKQPARIAEEGYYASMLCLLGHQALQEEKTLYFPDEYKINYLNHQSKTSEAV” the “soluble on expression in E. coli” value was “not soluble”. In the case of “MGSDKIHHHHHHMKHYQTIIIGAGAAGIGFGSAMQRLGLTNFLIIEKGHIGESFLRWPRTTQFITPSFTTNGFGFPDLNAVIPDTSPAFSFEKEHLSGVEYARYLQLVAAHYNLPIQNETSVLSIDKRDSLFVIKTSKGDFSADYLIMATGEFQNPNTIDIKGADLGMHYGQVDNFHIKSDNPFIIIGGNESACDALTHLVYLGNQVELYTDTFGRKESNPDPSISLSPLTKERLKHIQDHKKEYYSISEGKKAIEIKQIGKQYQVTFDDGSTAESFHKPILSTGFLNTCHLIDGIALFEYDKNQLPIVTEDDESTIVNNCFLIGPSLRQRDTIFCYIYKFRQRFVPVINHIAQREGIILDEDTLEFFKENQMYLDNLACCDVNCDC”, the “soluble on expression in E. coli” value is reported as “not soluble”. In the case of “MGSDKIHHHHHHMKIAHVAPLYESVPPRLYGGTERIISYLTEALVDLGHDVTLFASGDTKTSAKLVPCRERALRLDPRPLKSEIAAHLSMLDEVRKRADDFDVIHFHLSHFLHFPFFRDMPQRTVTTPHGRLDYADLAQAYDRFPRFPMVSISRSQRARFASANWLATIHHGLPVDLYEPDFEAGSDGGYLAFLGRMSRDKRPDRAIEIARRTGLKLKLAAKIGDGDRAYFEEVVQPMIDGDRVEYVGEIGEDQKSRFLGNAAALLFPIDWPEPFGLAVIEAMACGTPVMAWSCGAMPEIVDYGVTGFVVETIEDAVATMPALLQLDRRRIRAVFERRFSADRMARDYVEAYSRLRNGHEQSRAS”, the “soluble on expression in E. coli” value is reported as “not soluble”. In the case of “MGSDKIHHHHHHMKIGVNSYIVREMTGRGFSLDELNVDFVELGFDDAEIIKNDGEINMKILKDLSGLGIEFTIHAPTSDGKNFPIDFGEYFPIDLGTYRKTPIIKRMKKIIKVAEYLDASVIVVHGGDIKESYTKAYVNTLRNLRELKPITEDSGVKIVVENLFEGRIGALPHEVLSFAKEGFEVCFDIGHAFLTAIRTGLRVDEFEMLFPYTTHLHLHDNNGFRDEHKPIGEGIIGFSYVERVLELTNPERAVLEIRRYNKENSVLLNVEVLQEISRDFSQMKRLTEVVEP”, the “soluble on expression in E. coli” value is reported as “not soluble”. With “MGSDKIHHHHHHMKIGVVGPGAIGLLYTFYLQKSNQDVTLFTRTAKQADELNITGVTCIREGKRETVFPPVLPIESMLDQQLDYIFIAVKQYHITDILPFVRGKSSVVFLQNGMSHLHAMQKIENENIAVGIVEHGAKKEERHTVYHTGIGVTKFGIVRGRSIHFEKIFNCFPFPHFPIRIEDDWKGVMHKKLVVNVCINPLTALLQVKNGELITNPFFNQMMEQVFQEVVFLVKEEKEMVWEMVRHVCERTSHNTSSMLADVRANRQTEIGAIVGYVLEEAKKQQRSVPTLQFLFDAIKGLEVKV” the “soluble on expression in E. coli” value was “not soluble”. For “MGSDKIHHHHHHMKIHQLRALVAVTTAGSIKAAARTMHVTQPAISKAIQELENEFGVPLLERKPWGVVPTPEGDALLGRAQAVVRELERANEDMAHMKGLRDGRLVIGFTPIVAVTGFAEAYAAFRRHWPNVECELRELTFNLLTEQLRNRTLDLAFVAVTGPLSESVDIKAIRTFDTAFVTRENGRFAGATSLDALRDAEWIHADASDSFPTYIRDLHAHAGLPPPRCITRCTSYALFYSLLMTNDAIFSWTRLSLAETVFGQKLTPLPLPMSPPPLQLYRLTPPGLQLTRPASDFLAHVETAFASNQLTGDVQR”, the “soluble on expression in E. coli” value was “not soluble”. In the case of “MGSDKIHHHHHHMKIILTTSMSGLGGTETATVRLGRLLKRHGHDIILASSDGPFVGEAQASGIRWQPVDFYRGGLAGYLKSTFAYARMLRREQPDIIDCQMARVVPACALAAKIVSPKTKIICHSHGLDAATYPKTAKLFDKLGAYIIGNCKHEREKLIRHGFPAGRIAYAYNTPPEFHFRKTEKECAVLGTLSRLDTVRAVHLMLDILKKMVGRNIPVRLNMAGIGEEMDNLKAQAKRLGIEDKVTFLGGVRDLTGYFKEVDILVNTPHCVGDHGAGVGNNILEAGLYDTPVVTYNMAGISEMVITGQTGYCIPFGDDEAFIEAVDTLIKHPELRSQMGKALHKHVETLCSDDEIYRTTMAAYEM”, the “soluble on expression in E. coli” value is reported as “not soluble”. With “MGSDKIHHHHHHMKISIIGAGSVRFALQLVGDIAQTEELSREDTHIYMMDVHERRLNASYILARKYVEELNSPVKIVKTSSLDEAIDGADFIINTAYPYDPRYHDSGSQRWDEVTKVGEKHGYYRGIDSQELNMVSTYTYVLSSYPDMKLALEIAEKMKKMAPKAYLMQTANPVFEITQAVRRWTGANIVGFCHGVAGVYEVFEKLDLDPEEVDWQVAGVNHGIWLNRFRYRGEDAYPLLDEWIEKKLPEWEPKNPWDTQMSPAAMDMYKFYGMLPIGDTVRNGSWKYHYNLETKKKWFGKFGGIDNEVERPKFHEQLRRARERLIKLAEEVQQNPGMKLTEEHPEIFPKGKLSGEQHIPFINAIANNKRVRLFLNVENQGTLKDFPDDVVMELPVWVDCCGIHREKVEPDLTHRIKIFYLWPRILRMEWNLEAYISRDRKVLEEILIRDPRTKSYEQIVQVLDEIFNLPFNEELRRYYKEKL” the “soluble on expression in E. coli” value was “soluble”. In the case of “MGSDKIHHHHHHMKISVLGAGCIGGSIALKLKEKHHVTAFDRDEETMKALEENGIETVSKESDLYDTDLLVLALPMSVEERFLKETDFSGKILDVASVKTPFMEIARERGLNFTGGHPMAGNERKGKSGWDREMFDGKIFFLCSLDGKEDGMIENIVKDLGARPLWIDYRIHDEIVAAVSHVQYLISLSARYVGKPFEEYAGPGYLSNTRLSKQNMEMALDMIRYNKENILKYLENARNFLNVLYHLTEKEDFENLKKVIREVIS”, the “soluble on expression in E. coli” value is reported as “not soluble”. In the case of “MGSDKIHHHHHHMKKEKVEERIREILRPGWDLLTEEAMLYSATVGGKRIRPLLVLTLGEDLGVEEEKLLDVAVAVELFHTASLIHDDLPPIDNADFRRGKPSCHRTYGEDIALLAGDGLFFLAFSQISKIGNSKIFEEFSETAYKLLLGEAMDVEFERRKMEVSQEMVERMYAFKTGALFAFCFSAPFILKGKDHTKMKLLGEKFGVAFQIYDDLKDILGSFEKVGKDLGKDTEKVTLVKKVGIQKAREMADKYYEEVLKGIESEGLFRTLFLLKELKQMVEER”, the “soluble on expression in E. coli” value is reported as “soluble”. In the case of “MGSDKIHHHHHHMKKKIVVLLPMKANSTRVKGKNFRDFCGKPLFRWILDSLLAVEDIDQIVINTDARDILAENGLVGTDRILIRDRKKEICGDEVSMNRVLADDVENVEADIYLMTHTTNPLLSSNTIKQAINQYNEELASASADSLFTVNKIQTRFYTAKCEPINHDPDNLIPTQDLEPWFEENSNLYLFNRESFAKTNARIGAKPSMMVSPAMECSDIDTPDDWDQAVVMTHYMLEKGFVKL”, the “soluble on expression in E. coli” value is reported as “not soluble”. With “MGSDKIHHHHHHMKKLYILAIAIAVTTFSCKKNKEDEPAPSGSEQAKVVENYANIVYATYDDALITAKNLRAKAADFVASPSEAGLEEVRAAYIASRTPYIQSEAFRFYSGPIDQDLGGGLTIESSINSWPLEEVYIDYVVGDANAGIINDVAHFPTIDKNVILENNQKEGAGENSVSSGYHAVEFLLWGQDLSETGPGDRKYTDYLVNSDDATNLNQARRGQYLLACIDLIIDNLQTLKEAWKSGNASNYRAGFIADPKGSIGNFLKGVIGYADDELSVERMQVALDTEGDAERQEQEQSCFSDQTYNDIILGQKGIKNVYVGEYVRIDGTIVSGMSVSDLVKAADPKLDSTVRAKIYDTDIKVAAIHAPFDNEILTANTAGTIRVQNAINALHVEAAQYKNAANKIGYLY” the “soluble on expression in E. coli” value was “not soluble”. In the case of “MGSDKIHHHHHHMKKNIIILGLISLLAVSCGDDFLTTHPGDSVSTDLALSTEQDIDNAVNGLYDLMSSYGYYGGTMFFYGDMKGDDMQSSYNSGRTCNRCYLYDHRSTSLNAGYLWGRPFYIIRNAWNVINAIDDGKVQGSEQRLKELKGEAMTIMALCQFDLTRCFGYPYTKDKGAGWGAPIVDHAITLDENPPRSTVAKDYEFIISTLEEAIPLMSTSKNNSRMNAYAARALLSRIYLYHDDNEKAFQMASNLIEEVEGNGMYRLYTRDEYVPAWDLKNTFGTESLFEIANSTDDNGGRSSLAYLMHWNGYREIFATQKFVDELLSDPEDIRCLLLEKNVYNKNDVWWLKKWPGTDATTPSFENNYVIFRLSEVYLNAAEAGVKIGGASAVKGLNYLNAIVQRANPAKEVTAAEYTLDRVLEERSKELIGEGHRFFDMLRNGKTIVRKGGYHLPGIVEEIDWDYYKCVLPIPTDQFTFSPDMEQNPGYTKN”, the “soluble on expression in E. coli” value is reported as “not soluble”. With “MGSDKIHHHHHHMKKVIPALALVLLTTGLVGCDRVEPGNVGIKVNKLGDDKGVGEVVGVGRYWTGWNTEVYIFPTFKQMKTYDEPFSFQMSDGTTIGYHIGVAYKVDPSKVTTVFQTYRKGVDDITDTDLRQKIADALNRLASKMTTDKFIDGGKSELLDAALKDIQEEMTPIGIQVMSLSYVGKPEYPPTVIDSINAKVTANQKTLQCEQEVKQREAEANMLRAEAAGQADAIRTKAQAEADAIRLRGEALRQNPNVMELEAINKWNGTLPQYMTSGANTPFIQVK” the “soluble on expression in E. coli” value was “not soluble”.
